In US20210171970A1 (CURATORS OF THE UNIVERSITY OF MISSOURI, published 2021):

B1: BADC2 (Single hybrid motif protein, AT1G52670), Arabidopsis thaliana (other)
chain: TTLRSVKAIQLSTVPPAETEAIADVKDSDETKSTVVNTHLMPKSSEVEALISEITDSSSIAEFELKLGGFRLYVARKLTDESSPPPQQIQPVVAASATPEGVHTNGSATSSSLAITKTSSSSADRPQTLANKAADQGLVILQSPTVGYFRRSKTIKGKRTPTICKEKDIVKEGQVLCYIEQLGGQIPVESDVSGEIVKILREDGEPVGYNDALITVLPSFPGIKKLQ
notes: Native protein in chloroplast lysate for the co-IPs; Recombinant and two-hybrid constructs lack the TargetP-predicted transit peptide; His-tagged or untagged in co-expression; also called AtBADC2; NP_564612.1
B2: BCCP2 (biotin carboxyl carrier protein 2 subunit of hetACCase, AT5G15530), Arabidopsis thaliana (other, UniProt Q9LLC1 88-255, looked up)
chain: EFMAKVSGLLKLVDSKDIVELELKQLDCEIVIRKKEALQQAVPPAPVYHSMPPVMADFSMPPAQPVALPPSPTPTSTPATAKPTSAPSSSHPPLKSPMAGTFYRSPGPGEPPFVKVGDKVQKGQIVCIIEAMKLMNEIEAEKSGTIMELLAEDGKPVSVDTPLFVIAP
modifications: biotinylated (residue not given)
notes: Native protein in chloroplast lysate for the co-IPs; Recombinant and two-hybrid constructs lack the TargetP-predicted transit peptide; also called AtBCCP2; NP_568316.1
B3: BADC1 (biotin/lipoyl attachment domain-containing protein, AT3G56130), Arabidopsis thaliana (protein)
chain: AKAAKSSTTTISDGSSDASVSDGKKTVRRITFPKEVEALVHEMCDETEVAVLQLKVGDFEMNLKRKIGAATNPIPVADISPTVAPPIPSEPMNKSASSAPSPSQAKPSSEKVSPFKNTSYGKPAKLAALEASGSTNYVLVTSPAVGKFQRSRTVKGKKQSPSCKEGDAIKEGQVIGYLHQLGTELPVTSDVAGEVLKLLSDDGDSVGYGDPLVAVLPSFHDINIQ

Tests used:
[1] = molecular target: the molecule itself; assay: intact mass analysis and non-reducing SDS-PAGE of purified recombinant protein (only a monomer band)
[2] = molecular target: alpha-carboxyltransferase (α-CT) subunit of hetACCase, AT2G38040, Arabidopsis thaliana (Arabidopsis thaliana) (UniProt Q9LD43); assay: co-IP from A. thaliana chloroplast lysate with anti-α-CT polyclonal antibody, LC-MS/MS
[3] = molecular target: T1, beta-carboxyltransferase (β-CT) subunit of hetACCase, ATCG00500, Arabidopsis thaliana (Arabidopsis thaliana, UniProt P56765 1-488); assay: co-IP from A. thaliana chloroplast lysate with anti-BCCP2 polyclonal antibody, LC-MS/MS
T1 construct: Native protein in chloroplast lysate
T1 sequence (looked up): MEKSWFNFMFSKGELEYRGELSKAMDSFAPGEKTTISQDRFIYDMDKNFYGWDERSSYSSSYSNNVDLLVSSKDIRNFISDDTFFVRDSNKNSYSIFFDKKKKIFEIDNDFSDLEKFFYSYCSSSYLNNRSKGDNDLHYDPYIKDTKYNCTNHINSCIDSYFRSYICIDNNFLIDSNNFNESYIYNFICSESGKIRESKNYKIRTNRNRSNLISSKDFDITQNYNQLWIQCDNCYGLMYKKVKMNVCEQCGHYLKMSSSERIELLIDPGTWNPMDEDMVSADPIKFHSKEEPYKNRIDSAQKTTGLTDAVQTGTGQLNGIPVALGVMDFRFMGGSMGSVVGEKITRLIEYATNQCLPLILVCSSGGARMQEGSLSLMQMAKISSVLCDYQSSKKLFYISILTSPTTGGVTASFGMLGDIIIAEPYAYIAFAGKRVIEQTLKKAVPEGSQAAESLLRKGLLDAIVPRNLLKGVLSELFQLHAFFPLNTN
Method: For co-innmunoprecipitation of hetACCase from Arabidopsis seedlings, crude chloroplasts were isolated from approximately 10 g 14-d-old A. thaliana seedlings after 1 h light exposure. Fresh leaves were homogenized in ice-cold grinding buffer (50 mM HEPES-KOH pH 8.0, 330 mM sorbitol, 1.5 mM MnCl₂, 2 mM MgCl₂, 2 mM EDTA, 0.1% (w/v) BSA) using a Waring blender. Homogenate was filtered through two layers of Miracloth and centrifuged at 2,600 g at 4° C. for 20 min. Chloroplasts were lysed for 30 min in ice-cold lysis buffer (50 mM HEPES-KOH pH 8.0, 10% (v/v) glycerol, 0.5% (v/v) Triton X-100). Lysates were homogenized ten times in a Dounce homogenizer on ice and then centrifuged at 30 k g for 20 min at 4° C. Then, 1 mL of the 30 k g supernatant was added to 25 μL Protein A-Sepharose beads (Sigma Aldrich) either uncoated (control) or coated with antibody specific for α-CT, BCCP, BADC1, or BADC2. Co-immunoprecipations (co-IP) were carried out at 4° C. for 3 h with gentle mixing. The heads were washed twice with 1 mL ice-cold lysis buffer and precipitated protein was eluted by adding 30 μL 6×SDS sample buffer (350 mM Tris-HCl, pH 6.8, 350 mM SDS, 30% (v/v) glycerol, 100 mM dithiothreitol, 2.5 mM bromophenol blue) and heating at 65° C. for 10 min. Eluted proteins were resolved on 10% SDS-PAGE gels for western and mass spectrometry analysis. […]

[4] = molecular target: heteromeric acetyl-coenzyme A carboxylase (hetACCase) of Arabidopsis thaliana, in silique or leaf extracts (Arabidopsis thaliana) (UniProt O04983); assay: inhibition of ACCase activity in 20-day-old A. thaliana leaf extracts with increasing recombinant BADC1, polynomial fit

Chain of alpha-carboxyltransferase (α-CT) subunit of hetACCase, AT2G38040, Arabidopsis thaliana (Arabidopsis thaliana) (Q9LD43 55-769): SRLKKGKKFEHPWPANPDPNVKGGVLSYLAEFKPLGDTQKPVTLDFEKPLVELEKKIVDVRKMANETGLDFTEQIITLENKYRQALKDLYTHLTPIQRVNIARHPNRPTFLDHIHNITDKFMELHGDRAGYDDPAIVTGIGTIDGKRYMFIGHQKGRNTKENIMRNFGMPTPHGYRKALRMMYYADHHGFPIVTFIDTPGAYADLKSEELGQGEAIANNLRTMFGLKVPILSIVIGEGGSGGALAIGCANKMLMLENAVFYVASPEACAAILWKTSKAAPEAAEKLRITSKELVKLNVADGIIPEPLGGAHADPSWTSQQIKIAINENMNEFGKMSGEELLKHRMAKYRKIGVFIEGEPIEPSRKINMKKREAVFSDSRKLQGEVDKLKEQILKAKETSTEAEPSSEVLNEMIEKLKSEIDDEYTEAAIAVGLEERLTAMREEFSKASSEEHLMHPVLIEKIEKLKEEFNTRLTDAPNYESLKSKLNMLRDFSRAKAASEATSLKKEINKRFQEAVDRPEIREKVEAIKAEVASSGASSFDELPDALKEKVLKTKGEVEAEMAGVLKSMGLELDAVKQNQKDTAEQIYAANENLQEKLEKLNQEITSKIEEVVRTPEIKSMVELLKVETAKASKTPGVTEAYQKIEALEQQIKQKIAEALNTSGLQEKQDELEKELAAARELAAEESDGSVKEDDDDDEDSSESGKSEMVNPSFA

Row | Binder | binding result [1] | replicates of the co-IP in which the protein was present (of seven) [2] | binding result [3] | Ki [4]
1 | B1 | no binding | 2 replicates | – | –
2 | B2 | – | – | no binding | –
3 | B3 | – | 1 replicates | – | 4.3 µM
